Article PMC3306252 (Nature, 2012)
One block for each molecule: values may come before it.

Experiments:
[1] = biological target: Srs2(1137-1174) (S. cerevisiae) (UniProt P12954); assay: fluorescence polarisation
[2] = biological target: BODIPY-FL Srs2(1107-1174) (S. cerevisiae) (UniProt P12954); assay: fluorescence polarisation
crystal structure [3] = biological target: the molecule itself; assay: crystal structure
Srs2(1107-1174) L1156A = biological target: T1, Srs2(1107-1174) L1156A (S. cerevisiae, UniProt P12954 1107-1174, L1156A, BODIPY-FL conjugated (FP was done with BODIPY-FL conjugated Srs2)); assay: fluorescence polarisation
T1 sequence: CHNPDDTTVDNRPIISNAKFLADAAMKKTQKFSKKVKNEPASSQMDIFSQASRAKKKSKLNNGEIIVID

Srs2(1107-1174) F1153A = biological target: T2, Srs2(1107-1174) F1153A (S. cerevisiae, UniProt P12954 1107-1174, F1153A, BODIPY-FL conjugated (FP was done with BODIPY-FL conjugated Srs2)); assay: fluorescence polarisation
T2 sequence: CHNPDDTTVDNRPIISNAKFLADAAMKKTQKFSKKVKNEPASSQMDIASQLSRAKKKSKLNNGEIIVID

Srs2(1107-1174) D1151A = biological target: T3, Srs2(1107-1174) D1151A (S. cerevisiae, UniProt P12954 1107-1174, D1151A, BODIPY-FL conjugated (FP was done with BODIPY-FL conjugated Srs2)); assay: fluorescence polarisation
T3 sequence: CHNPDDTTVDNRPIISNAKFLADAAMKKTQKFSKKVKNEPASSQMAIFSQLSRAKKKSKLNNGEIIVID

Srs2(1107-1174) Q1149E = biological target: T4, Srs2(1107-1174) Q1149E (S. cerevisiae, UniProt P12954 1107-1174, Q1149E, BODIPY-FL conjugated (FP was done with BODIPY-FL conjugated Srs2)); assay: fluorescence polarisation
T4 sequence: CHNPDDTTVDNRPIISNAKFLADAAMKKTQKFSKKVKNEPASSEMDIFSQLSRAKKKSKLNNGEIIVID

Srs2(1107-1174) Q1155E = biological target: T5, Srs2(1107-1174) Q1155E (S. cerevisiae, UniProt P12954 1107-1174, Q1155E, BODIPY-FL conjugated (FP was done with BODIPY-FL conjugated Srs2)); assay: fluorescence polarisation
T5 sequence: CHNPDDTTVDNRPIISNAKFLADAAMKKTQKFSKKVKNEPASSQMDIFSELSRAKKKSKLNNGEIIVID

Srs2(1107-1174) I1152A = biological target: T6, Srs2(1107-1174) I1152A (S. cerevisiae, UniProt P12954 1107-1174, I1152A, BODIPY-FL conjugated (FP was done with BODIPY-FL conjugated Srs2)); assay: fluorescence polarisation
T6 sequence: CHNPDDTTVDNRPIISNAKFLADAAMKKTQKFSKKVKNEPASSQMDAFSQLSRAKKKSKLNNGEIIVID

crystal structure [4] = biological target: the molecule itself; assay: crystal structure; remark: listed apart in the source
His6-Eco1 = biological target: T7, His6-Eco1 (S. cerevisiae, UniProt P43605 1-281); assay: pull-down
T7 sequence (looked up): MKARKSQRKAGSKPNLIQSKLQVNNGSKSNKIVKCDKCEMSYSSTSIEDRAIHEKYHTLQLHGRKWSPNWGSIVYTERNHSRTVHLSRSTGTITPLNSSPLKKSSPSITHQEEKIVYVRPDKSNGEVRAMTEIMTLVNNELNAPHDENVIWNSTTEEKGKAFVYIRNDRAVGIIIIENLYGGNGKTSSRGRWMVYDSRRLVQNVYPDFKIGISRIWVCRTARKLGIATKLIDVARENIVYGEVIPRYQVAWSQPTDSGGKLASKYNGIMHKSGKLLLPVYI

- fold weaker than Srs2(1107-1174) [1]: 4 fold
- Kd [2]: 877 nM
Molecule: GST-SUMO (from UniProt Q12306 1-101) (natural protein)

- fold weaker than Srs2(1107-1174) [1]: 3 fold
- Kd [2]: 169 nM
Molecule: PCNA (yeast proliferating cell nuclear antigen, trimer; variant not named) (from UniProt P15873 1-258) (natural protein)

- fold worse than PCNA^tri [2]: 6.5 fold
Molecule: PCNA^mono (N-ethylmaleimide-treated PCNA) (from UniProt P15873 1-258) (natural protein)

- Kd [2]: 14 nM
Molecule: SUMO_K127-PCNA^mono (PCNA K164R) (from UniProt P15873 1-258; Q12306 19-98) (complex)

- Kd [2]: 25.1 nM
Molecule: SUMO_K127-PCNA^tri (PCNA K164R) (from UniProt P15873 1-258; Q12306 19-98) (complex)

- Kd [2]: 79 nM
Molecule: SUMO_K164-PCNA^mono K127G (from UniProt P15873 1-258; Q12306 19-98) (complex)

- fold tighter than Srs2(1107-1174) [1]: 8 fold
- Kd [2]: 26.3 nM
Molecule: SUMO_K164-PCNA^tri K127G (from UniProt P15873 1-258; Q12306 19-98) (complex)

- fold reduced affinity against wild-type Srs2(1107-1174) (Srs2(1107-1174) L1156A): 73 fold
- fold reduced affinity against wild-type Srs2(1107-1174) (Srs2(1107-1174) F1153A): 9 fold
- fold defect in Kd against wild-type Srs2(1107-1174) (Srs2(1107-1174) D1151A): 10 fold
- fold defect in Kd against wild-type Srs2(1107-1174) (Srs2(1107-1174) Q1149E): 3 fold
- fold reduced affinity against wild-type Srs2(1107-1174) (Srs2(1107-1174) Q1155E): 31 fold
- fold defect in Kd against wild-type Srs2(1107-1174) (Srs2(1107-1174) I1152A): 60 fold
B1: PCNA^tri K127G (natural protein, budding yeast)
chain: MLEAKFEEASLFKRIIDGFKDCVQLVNFQCKEDGIIAQAVDDSRVLLVSLEIGVEAFQEYRCDHPVTLGMDLTSLSKILRCGNNTDTLTLIADNTPDSIILLFEDTKKDRIAEYSLKLMDIDADFLGIEELQYDSTLSLPSSEFSKIVRDLSQLSDSINIMITKETIKFVADGDIGSGSVIIKPFVDMEHPETSIKLEMDQPVDLTFGAKYLLDIIKGSSLSDRVGIRLSSEAPALFQFDLKSGFLQFFLAPKFNDEE
- stoichiometry N (crystal structure [3]): 3

B2: PCNA K127G, NEM-modified (the PCNA part of SUMO_K164-PCNA^mono) (natural protein, budding yeast)
chain: MLEAKFEEASLFKRIIDGFKDCVQLVNFQCKEDGIIAQAVDDSRVLLVSLEIGVEAFQEYRCDHPVTLGMDLTSLSKILRCGNNTDTLTLIADNTPDSIILLFEDTKKDRIAEYSLKLMDIDADFLGIEELQYDSTLSLPSSEFSKIVRDLSQLSDSINIMITKETIKFVADGDIGSGSVIIKPFVDMEHPETSIKLEMDQPVDLTFGAKYLLDIIKGSSLSDRVGIRLSSEAPALFQFDLKSGFLQFFLAPKFNDEE
modifications: N-ethylmaleimide on C22 and C81; K164 conjugated to SUMO G98
- binding result (crystal structure [4]): binds

- binding result (His6-Eco1): binds
B3: PCNA FLKI(125-128)AAAA (natural protein, budding yeast)
chain: MLEAKFEEASLFKRIIDGFKDCVQLVNFQCKEDGIIAQAVDDSRVLLVSLEIGVEAFQEYRCDHPVTLGMDLTSLSKILRCGNNTDTLTLIADNTPDSIILLFEDTKKDRIAEYSLKLMDIDADAAAAEELQYDSTLSLPSSEFSKIVRDLSQLSDSINIMITKETIKFVADGDIGSGSVIIKPFVDMEHPETSIKLEMDQPVDLTFGAKYLLDIIKGSSLSDRVGIRLSSEAPALFQFDLKSGFLQFFLAPKFNDEE
